# IntAct's records for PubMed 12074588
# Target: nck1_human NCK1 (UniProt P16333)
row,Substance,effect of a mutation on the interaction
1,"BDNF/NT-3 growth factors receptor (Rattus norvegicus (Rat)), Q63604 K571F",disrupting interaction strength
2,"BDNF/NT-3 growth factors receptor (Rattus norvegicus (Rat)), Q63604 Y515F",with no effect
3,"BDNF/NT-3 growth factors receptor (Rattus norvegicus (Rat)), Q63604 Y701F",with no effect
4,"BDNF/NT-3 growth factors receptor (Rattus norvegicus (Rat)), Q63604 Y705F",disrupting interaction strength
5,"BDNF/NT-3 growth factors receptor (Rattus norvegicus (Rat)), Q63604 Y706F",disrupting interaction strength
6,"BDNF/NT-3 growth factors receptor (Rattus norvegicus (Rat)), Q63604 Y726F",with no effect
7,"BDNF/NT-3 growth factors receptor (Rattus norvegicus (Rat)), Q63604 Y782F",disrupting interaction strength
8,"BDNF/NT-3 growth factors receptor (Rattus norvegicus (Rat)), Q63604 Y816F",with no effect
